In patent US20200149021, “SYSTEM AND METHOD FOR GENOME EDITING” (INSTITUTE OF ZOOLOGY, CHINESE ACADEMY OF SCIENCES, published 2020) one finds editing efficiency data, which are given here for one molecule.

The data set addresses T1, HkCpf1 (Helcococcus kunzii).
T1 chain: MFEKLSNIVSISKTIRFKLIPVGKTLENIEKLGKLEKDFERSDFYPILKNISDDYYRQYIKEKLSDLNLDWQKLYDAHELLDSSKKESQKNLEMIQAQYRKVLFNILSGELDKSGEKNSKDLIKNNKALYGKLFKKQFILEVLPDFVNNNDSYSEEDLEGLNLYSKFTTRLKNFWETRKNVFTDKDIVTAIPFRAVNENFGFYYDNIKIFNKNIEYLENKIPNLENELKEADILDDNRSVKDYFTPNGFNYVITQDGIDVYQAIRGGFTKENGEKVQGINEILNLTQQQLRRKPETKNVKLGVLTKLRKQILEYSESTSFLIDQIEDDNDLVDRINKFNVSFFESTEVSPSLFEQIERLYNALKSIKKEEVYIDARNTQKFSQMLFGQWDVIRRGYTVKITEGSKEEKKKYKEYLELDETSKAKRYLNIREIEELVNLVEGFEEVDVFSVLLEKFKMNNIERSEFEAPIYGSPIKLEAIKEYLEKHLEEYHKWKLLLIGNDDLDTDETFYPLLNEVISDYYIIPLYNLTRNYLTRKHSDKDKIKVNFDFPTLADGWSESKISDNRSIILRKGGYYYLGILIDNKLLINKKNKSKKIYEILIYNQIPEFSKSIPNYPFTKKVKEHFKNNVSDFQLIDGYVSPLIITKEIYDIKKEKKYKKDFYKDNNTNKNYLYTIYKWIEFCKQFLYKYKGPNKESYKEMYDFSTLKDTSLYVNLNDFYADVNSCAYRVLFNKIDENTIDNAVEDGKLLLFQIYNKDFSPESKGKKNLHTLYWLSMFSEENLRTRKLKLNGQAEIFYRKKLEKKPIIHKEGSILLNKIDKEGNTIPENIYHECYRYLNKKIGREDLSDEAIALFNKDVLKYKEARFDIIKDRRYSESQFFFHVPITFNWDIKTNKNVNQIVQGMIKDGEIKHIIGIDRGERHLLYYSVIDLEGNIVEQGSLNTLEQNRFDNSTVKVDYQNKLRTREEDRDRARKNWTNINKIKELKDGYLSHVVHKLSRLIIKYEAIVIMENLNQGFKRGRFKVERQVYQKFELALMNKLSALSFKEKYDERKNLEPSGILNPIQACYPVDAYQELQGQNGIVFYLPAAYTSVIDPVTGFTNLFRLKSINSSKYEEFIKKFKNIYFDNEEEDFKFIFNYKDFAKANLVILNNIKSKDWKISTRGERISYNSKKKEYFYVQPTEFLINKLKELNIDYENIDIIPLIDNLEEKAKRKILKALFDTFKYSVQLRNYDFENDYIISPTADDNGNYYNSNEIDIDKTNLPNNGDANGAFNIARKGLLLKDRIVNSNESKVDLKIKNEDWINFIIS
Kind of data set: cell_activity; PAM TTTC; T7EI. The conditions noted are these: tags: HA (2A-eGFP vector). As to the method:
GFP-positive cells were sorted by FACS, lysed with Buffer L+ 1/100V Protease K (Biotool) at 55° C. for 30 min, inactivated at 95° C. for 5 min, and directly used for PCR detection. Appropriate primers were designed near the Cpf1 targeting site, and the amplified product was purified using DNA Clean & Concentrator™-5 kit (ZYMO Research). 200 ng of purified PCR product was added into 1 uL of NEBuffer2 (NEB) and diluted to 10 uL with ddH₂O. Then, heterodimers were formed by re-annealing according to the previously reported method (Li, W., et al., Simultaneous generation and germline transmission of multiple gene mutations in rat using CRISPR-Cas systems. Nat Biotechnol, 2013. 31(8): p. 684-6). The reannealed product was added with 0.3 uL of T7EI endnucelease and 1/10 V NEBuffer2 (NEB), and digested at 37° C. for 1 h 30 min. Genotype analysis was performed by 3% TAE-Gel electrophoresis. Indels were calculated according to the method reported in the previous article (Cong, L., et al., Multiplex genome engineering using CRISPR/Cas systems. Science, 2013. 339(6121): p. 819-23).
The cells were transfected with Cpf1, crRNA31, and crRNA2 plasmids, and it was confirmed by PCR and T7EI analysis that crRNA31 can increase the editing efficiency of five Cpf1s of ArCpf1, BsCpf1, HkCpf1, PrCpf1, and PxCpf1 at the site MeCP2-4 by two folds (FIG. 13B).

B1: crRNA31 MeCP2 site 4 ; Mouse MeCP2 site 4 (ssRNA ; dsDNA)
RNA: AUUUCUACUAUGGUAGAUGUGUCCAACCUUCAGGCAAGGUG
DNA 1: TTTCGTGTCCAACCTTCAGGCAAGGTG
DNA 2: CACCTTGCCTGAAGGTTGGACACGAAA
In turn, B1 gave an editing efficiency of about 2 fold vs crRNA2.
